Test results from patent publication US20220041658A1 (PROTAGONIST THERAPEUTICS, published 2022).
Starred links: 1 amine or outer side, 2 acyl side, 3 side chain; linkers in the order of their positions; H or OH if unused. Positions of bridges follow the written chain, without caps; N, C: chain ends. Non-standard residues stand in square brackets, D forms with d. Trp(6-Et) = 6-ethyl-tryptophan, CCc1ccc2c(C[C@H](N[*:1])C(=O)[*:2])c[nH]c2c1; Trp(7-nPr) = CCCc1cccc2c(C[C@H](N[*:1])C(=O)[*:2])c[nH]c12; Trp(7-Me) = Cc1cccc2c(C[C@H](N)C(=O)O)c[nH]c12; Trp(2-Me) = Cc1[nH]c2ccccc2c1C[C@H](N)C(=O)O; 2Nal = N[C@@H](Cc1ccc2ccccc2c1)C(=O)O; AEF = NCCOc1ccc(C[C@H](N)C(=O)O)cc1; Cit = NC(=O)NCCC[C@H](N)C(=O)O; Pen = CC(C)(S)[C@H](N)C(=O)O; αMeK = C[C@](N)(CCCCN)C(=O)O; Abu = CC[C@H](N)C(=O)O; Aib = CC(C)(N)C(=O)O; βAla = NCCC(=O)O

T1: interleukin-23 receptor (IL-23R) (human, UniProt Q5VWK5 24-629)
T1 sequence (looked up): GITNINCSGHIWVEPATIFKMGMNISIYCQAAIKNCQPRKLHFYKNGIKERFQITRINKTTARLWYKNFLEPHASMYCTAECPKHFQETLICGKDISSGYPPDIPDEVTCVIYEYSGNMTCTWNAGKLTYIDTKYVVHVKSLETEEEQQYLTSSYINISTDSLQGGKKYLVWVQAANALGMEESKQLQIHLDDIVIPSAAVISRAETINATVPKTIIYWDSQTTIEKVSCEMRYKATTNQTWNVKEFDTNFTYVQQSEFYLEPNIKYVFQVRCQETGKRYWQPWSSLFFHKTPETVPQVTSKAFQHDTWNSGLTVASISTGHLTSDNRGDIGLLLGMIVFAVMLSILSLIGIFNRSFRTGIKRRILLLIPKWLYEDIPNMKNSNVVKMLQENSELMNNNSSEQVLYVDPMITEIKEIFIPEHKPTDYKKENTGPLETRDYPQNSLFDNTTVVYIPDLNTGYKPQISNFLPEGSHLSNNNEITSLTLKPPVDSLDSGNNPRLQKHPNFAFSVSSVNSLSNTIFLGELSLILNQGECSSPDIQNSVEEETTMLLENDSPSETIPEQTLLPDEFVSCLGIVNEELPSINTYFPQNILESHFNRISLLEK

B1: Peptide of SEQ ID NO: 288 (peptide)
peptide: XNTXKXXXXKNL
modifications: Ac-[Pen]-N-T-[W(7-OMe)]-[Lys(Ac)]-[Pen]-Phe[4-(2-aminoethoxy)]-[2-Nal]-[a-MeLys]-[Lys(Ac)]-N-[(D)Leu]-NH2; Pen-Pen disulfide
B2: Peptide of SEQ ID NO: 317 (peptide)
peptide: XNTXXXXXXKNL
modifications: Ac-[Pen]-N-T-[W(7-Me)]-[Lys(octanoic)]-[Pen]-Phe[4-(2-aminoethoxy)]-[2-Nal]-[a-MeLys]-[Lys(Ac)]-N-[(D)Leu]-NH2; Pen-Pen disulfide
B3: Peptide of SEQ ID NO: 355 (peptide)
peptide: XNTXKXXXXXNL
modifications: Ac-[Pen]-N-T-[W(7-Me)]-[Lys(Ac)]-[Pen]-Phe[4-(2-aminoethoxy)]-[2-Nal]-[a-MeLys]-[Lys(Ala)]-N-[(D)Leu]-NH2; Pen-Pen disulfide
B4: Peptide of SEQ ID NO: 359 (peptide)
peptide: XNTXKXXXXXNL
modifications: not fully specified; Ac-[Pen]-N-T-[W(7-Me)]-[Lys(Ac)]-[Pen]-Phe[4-(2-aminoethoxy)]-[2-Nal]-[a-MeLys]-[Lys(benzyl)]-N-[(D)Leu]-NH2; Pen-Pen disulfide
B5: Peptide of SEQ ID NO: 363 (peptide)
peptide: XNTXKXXXXXNL
modifications: Ac-[Pen]-N-T-[W(7-Me)]-[Lys(Ac)]-[Pen]-Phe[4-(2-aminoethoxy)]-[2-Nal]-[a-MeLys]-[Lys(PEG11-OMe)]-N-[(D)Leu]-NH2; Pen-Pen disulfide
B6: Peptide of SEQ ID NO: 320 (peptide)
peptide: XNTXXXXXXKNL
modifications: Ac-[Pen]-N-T-[W(7-Me)]-[Lys(Gly)]-[Pen]-Phe[4-(2-aminoethoxy)]-[2-Nal]-[a-MeLys]-[Lys(Ac)]-N-[(D)Leu]-NH2; Pen-Pen disulfide
B7: Peptide of SEQ ID NO: 201 (peptide)
peptide: XNTXQXXXXKNX
modifications: Ac-[Pen]-NT-[W(7-Me)]-Q-[Pen]-Phe[4-(2-aminoethoxy)]-[2-Nal]-[a-MeLeu]-[Lys(Ac)]-N-[bA]-NH2; Pen-Pen disulfide
B8: Peptide of SEQ ID NO: 356 (peptide)
peptide: XNTXKXXXXXNL
modifications: Ac-[Pen]-N-T-[W(7-Me)]-[Lys(Ac)]-[Pen]-Phe[4-(2-aminoethoxy)]-[2-Nal]-[a-MeLys]-[Lys(IVA)]-N-[(D)Leu]-NH2; Pen-Pen disulfide
B9: Peptide of SEQ ID NO: 360 (peptide)
peptide: XNTXKXXXXXNL
modifications: Ac-[Pen]-N-T-[W(7-Me)]-[Lys(Ac)]-[Pen]-Phe[4-(2-aminoethoxy)]-[2-Nal]-[a-MeLys]-[Lys(trifluoropropionic)]-N-[(D)Leu]-NH2; Pen-Pen disulfide
B10: Peptide of SEQ ID NO: 282 (peptide)
peptide: XNTXQXXXXENX
modifications: Ac-[Pen]-N-T-[W(7-Me)]-Q-[Pen]-Phe[4-(2-aminoethoxy)]-[2-Nal]-[a-MeLys]-E-N-[bA]-NH2; Pen-Pen disulfide
B11: Peptide of SEQ ID NO: 210 (peptide)
peptide: XNTXQXXXXKLX
modifications: Ac-[Pen]-NT-[W(7-Me)]-Q-[Pen]-Phe[4-(2-aminoethoxy)]-[2-Nal]-[a-MeLeu]-[Lys(Ac)]-[(D)Leu]-[bA]-NH2; Pen-Pen disulfide
B12: Peptide of SEQ ID NO: 213 (peptide)
peptide: XNTXQXXXXKFX
modifications: Ac-[Pen]-NT-[W(7-Me)]-Q-[Pen]-Phe[4-(2-aminoethoxy)]-[2-Nal]-[a-MeLeu]-[Lys(Ac)]-[(D)Phe]-[bA]-NH2; Pen-Pen disulfide
B13: Peptide of SEQ ID NO: 212 (peptide)
peptide: XNTXQXXXXKPX
modifications: Ac-[Pen]-NT-[W(7-Me)]-Q-[Pen]-Phe[4-(2-aminoethoxy)]-[2-Nal]-[a-MeLeu]-[Lys(Ac)]-[(D)Pro]-[bA]-NH2; Pen-Pen disulfide
B14: Peptide of SEQ ID NO: 354 (peptide)
peptide: XNTXKXXXXKNN
modifications: Ac-[Pen]-N-T-[W(7-Me)]-[Lys(Ac)]-[Pen]-Phe[4-(2-aminoethoxy)]-[2-Nal]-[a-MeLeu]-[Lys(Ac)]-N-[(D)Asn]-NH2; Pen-Pen disulfide
B15: Peptide of SEQ ID NO: 358 (peptide)
peptide: XNTXKXXXXXNL
modifications: Ac-[Pen]-N-T-[W(7-Me)]-[Lys(Ac)]-[Pen]-Phe[4-(2-aminoethoxy)]-[2-Nal]-[a-MeLys]-[Lys(octanoic)]-N-[(D)Leu]-NH2; Pen-Pen disulfide
B16: Peptide of SEQ ID NO: 285 (peptide)
peptide: Ac-[Pen]NT[Trp(7-nPr)]K(Ac)[Pen][AEF][2Nal][αMeK]K(Ac)N[dL]-NH2
modifications: disulfide 1-6
SMILES: CCCc1cccc2c(C[C@@H]3NC(=O)[C@H]([C@@H](C)O)NC(=O)[C@H](CC(N)=O)NC(=O)[C@@H](NC(C)=O)C(C)(C)SSC(C)(C)[C@@H](C(=O)N[C@@H](Cc4ccc(OCCN)cc4)C(=O)N[C@@H](Cc4ccc5ccccc5c4)C(=O)N[C@@](C)(CCCCN)C(=O)N[C@@H](CCCCNC(C)=O)C(=O)N[C@@H](CC(N)=O)C(=O)N[C@H](CC(C)C)C(N)=O)NC(=O)[C@H](CCCCNC(C)=O)NC3=O)c[nH]c12

Key:
[1] = target: T1, interleukin-23 receptor (IL-23R); assay: cell-based or functional assay
[2] = target: T1, interleukin-23 receptor (IL-23R); assay: cell-based or functional assay; remark: listed apart in the source

Row | Binder | pStat3 HTRF IC50 [1] | NK Cell Assay IC50 [2]
1 | Ac-[Pen]NT[Trp(6-Et)]K(Ac)[Pen][AEF][2Nal][αMeK]K(Ac)N[dK]-NH2 (disulfide 1-6 (inferred)) [Peptide of SEQ ID NO: 349] | 12.7 nM | 45.5 nM
2 | B1 | 1.48 nM | –
3 | B2 | 13 nM | –
4 | Ac-[Pen]NT[Trp(7-Me)]K(Ac)[Pen][His_Bzl][2Nal][αMeK]K(Ac)N[dL]-NH2 (disulfide 1-6 (inferred)) [Peptide of SEQ ID NO: 293] | 224 nM | –
5 | B3 | 0.456 nM | 5.34 nM
6 | B4 | 0.725 nM | 4.97 nM
7 | B5 | 0.446 nM | 4.36 nM
8 | B6 | 0.632 nM | 3.35 nM
9 | B7 | 1.05 nM | 3.06 nM
10 | Ac-[Pen]NT[Trp(7-Me)]K(Ac)[Pen][AEF][Trp(2-Me)][αMeK]K(Ac)N[dK]-NH2 (disulfide 1-6 (inferred)) [Peptide of SEQ ID NO: 353] | 0.715 nM | 7.1 nM
11 | B8 | 0.193 nM | 4.01 nM
12 | B9 | 0.568 nM | 1.1 nM
13 | B10 | 1.37 nM | –
14 | B11 | 66.1 nM | > 500 nM
15 | Ac-[Pen]NT[Trp(7-Me)][Cit][Pen][AEF][2Nal][αMeK]K(Ac)N[Aib][βAla]-NH2 (disulfide 1-6 (inferred)) [Peptide of SEQ ID NO: 340] | 0.322 nM | 2.1 nM
16 | B12 | 35.5 nM | 60 nM
17 | Ac-[dR][Abu]QT[Trp(7-Me)]K(Ac)C[AEF][2Nal][αMeK]K(Ac)N[dL]-NH2 (thioether 2-7 (inferred)) [Peptide of SEQ ID NO: 325] | 4.45 nM | 12.7 nM
18 | B13 | 36.5 nM | 157 nM
19 | B14 | 0.283 nM | 1.62 nM
20 | B15 | 3.03 nM | 6.3 nM
21 | B16 | 0.849 nM | –
